“And” between values parts separate entries of the source, which are not always exact repeats. Equal entries are not always repeated.
Experiments:
[1] = target: Schizosaccharomyces pombe ribosome (S. pombe); test: co-sedimentation; NatA constant at 0.5 μM, ribosome 0.1–11 μM, 30% sucrose cushion; anti-His western blot of Naa15, proportion in the pellet quantified; fit assumes 1:1
[2] = target: Schizosaccharomyces pombe ribosome (S. pombe); test: co-sedimentation; ribosome 1 μM and NatA 1.2 μM layered on Buffer G with 30% sucrose, ultracentrifuged; pellet and supernatant on SDS-PAGE

Kd [1] [nM]	stoichiometry N [2]	percent pulldown (highest reached at the ribosome concentrations used) [1] [%]	Substance
1100	1.13 and 1.28	–	NatA (wild type; Naa15-Naa10 complex of Schizosaccharomyces pombe)
–	–	< 30	NatA K9E (Naa15 K27E, K28E, K31E, K605E, K606E, K609E, K610E, K612E, K613E with Naa10) (complex)

— PMC5634638
